The results in this text go back to patent US20140271651A1 (AbbVie / Abbott, published 2014).

The experiment deals with T1, Aleuria aurantia lectin (Aleuria aurantia, UniProt P18891 2-313).
T1 construct: also called AAL; free AAL
T1 sequence (looked up): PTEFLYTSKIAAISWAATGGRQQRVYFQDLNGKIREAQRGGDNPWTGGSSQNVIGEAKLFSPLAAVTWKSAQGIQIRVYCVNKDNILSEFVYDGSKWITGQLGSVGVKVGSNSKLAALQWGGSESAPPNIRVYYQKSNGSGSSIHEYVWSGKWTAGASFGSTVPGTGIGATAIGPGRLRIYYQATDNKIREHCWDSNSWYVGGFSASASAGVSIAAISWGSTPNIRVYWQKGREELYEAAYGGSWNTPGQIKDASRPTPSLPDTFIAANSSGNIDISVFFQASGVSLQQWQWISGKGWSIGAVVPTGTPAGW
The experiment is described as follows: EIA, GP73-hFc captured on donkey anti-human IgG Fc, biotin AAL pre-mixed with free fucose. On the procedure:
The biotin labeled anti-GP73 mAbs were tested to determine if they were sensitive to the presence of fucose on the GP73-hFc antigen by EIA. Aleuria Aurantia Lectin (AAL) (Vector Laboratories) binds fucose with a high degree of specificity. Donkey anti-human IgG Fc (Jackson Immunoresearch) was coated on 96 well micro titer EIA plates at approximately 1 μg/mL. After the capture reagent was coated on the solid phase, the capture reagent was removed and the plates were blocked for 30 min using Protein-Free T20 (TBS) Blocking Buffer (Thermo Scientific). The wells were washed with distilled water. A 200 ng/mL solution of GP73-hFc antigen was added to the blocked plates and allowed to incubate at room temperature for at least 45 min then washed with distilled water. Fucose was added to the wells of a separate non-absorbing microtiter plate in serial dilutions starting from 1000 μg/mL Biotin labeled anti-GP73 mAbs were added to the plates at predetermined concentrations for each mAb ranging from 50 to 2000 ng/mL and incubated for 45 min at room temperature. The mixture was added to the microtiter plates with the captured GP73-hFc and allowed to incubate for 15-20 min at room temperature. Biotin labeled AAL was used as a positive control for the assay and a biotin labeled irrelevant mAb was used as the negative control. […] Plates were read at 492 nm and the results were analyzed.

B1: GP73-hFc (human GP73 amino acids 63 to 400 fused at the C-terminus to human IgG1 Fc) (Fc fusion)
chain: ELKKNEFQGELEKQREQLDKIQSSHNFQLESVNKLYQDEKAVLVNNITTGERLIRVLQDQLKTLQRNYGRLQQDVLQFQKNQTNLERKFSYDLSQCINQMKEVKEQCEERIEEVTKKGNEAVASRDLSENNDQRQQLQALSEPQPRLQAAGLPHTEVPQGKGNVLGNSKSQTPAPSSEVVLDSKRQVEKEETNEIQVVNEEPQRDRLPQEPGREQVVEDRPVGGRGFGGAGELGQTPQVQAALSVSQENPEMEGPERDQLVIPDGQEEEQEAAGEGRNQQKLRGEDDYNMDENEAESETDKQAALAGNDRNIDVFNVEDQKRDTINLLDQREKRNHTLRSVECPPCPAPPVAGPSVFLFPPKPKDTLMISRTPEVTCVVVDVSHEDPEVQFNWYVDGMEVHNAKTKPREEQFASTFRVVSVLTVVHQDWLNGKEYKCKVSNKGLPAPIEKTISKTKGQPREPQVYTLPPSREEMTKNQVSLTCLVKGFYPSDIAVEWESNGQPENNYKTTPPMLDSDGSFFLYSKLTVDKSRWQQGNVFSCSVMHEALHNHYTQKSLSLSPGK
notes: Expressed in HEK293F, CHO or HepG2 cells; the host is named under assay; also called HEK expressed GP73-hFc; CHO expressed GP73-hFc
For the molecule B1, the binding result is “binds”.
